Measurements as given in paper PMC4414810.

How the values were obtained:
Experiment in all cases: fluorescence polarisation
[1] = target: 5-FAM labeled HalA2 core peptide (Bacillus halodurans C-125)
[2] = target: fluorescein-labeled HalA2 (Bacillus halodurans C-125)
[3] = target: fluorescently-labeled, fully-modified HalA2 peptide (Bacillus halodurans C-125)
[4] = target: HalM2 (haloduracin lanthipeptide synthetase) (Bacillus halodurans C-125)

Q: With “HalCE2 (HalA2 leader peptide attached to the N-terminus of HalM2 through a (GS)15 linker) (enzyme)” as the substance, how does the Kd [1] read?
A: Its Kd is 85 µM.

Q: Which results are given for “HalM2 (haloduracin lanthipeptide synthetase) (enzyme)”?
A: Kd [2]: 1.9 µM; Kd [3]: 10.4 µM

Q: Which results are given for unlabeled HalA2 leader peptide?
A: IC50 [4]: 5.6 µM; Ki [4]: 5.5 µM

Q: How did the IC50 [4] turn out when unlabeled HalA2 peptide was run?
A: The IC50 was 1.2 µM.

Q: And the Ki [4]?
A: Its Ki is 1.2 µM.
